Source: patent US20070054353A1 (published 2007)
Positions count from the first letter of the chain named.

T1: ERα-EYFP fusion protein (UniProt P03372 1-595)
T1 construct: also called EYFP-ERα; not shown: EYFP (engineered fluorescent protein) of vector pEYFP-CMV
T1 sequence (looked up): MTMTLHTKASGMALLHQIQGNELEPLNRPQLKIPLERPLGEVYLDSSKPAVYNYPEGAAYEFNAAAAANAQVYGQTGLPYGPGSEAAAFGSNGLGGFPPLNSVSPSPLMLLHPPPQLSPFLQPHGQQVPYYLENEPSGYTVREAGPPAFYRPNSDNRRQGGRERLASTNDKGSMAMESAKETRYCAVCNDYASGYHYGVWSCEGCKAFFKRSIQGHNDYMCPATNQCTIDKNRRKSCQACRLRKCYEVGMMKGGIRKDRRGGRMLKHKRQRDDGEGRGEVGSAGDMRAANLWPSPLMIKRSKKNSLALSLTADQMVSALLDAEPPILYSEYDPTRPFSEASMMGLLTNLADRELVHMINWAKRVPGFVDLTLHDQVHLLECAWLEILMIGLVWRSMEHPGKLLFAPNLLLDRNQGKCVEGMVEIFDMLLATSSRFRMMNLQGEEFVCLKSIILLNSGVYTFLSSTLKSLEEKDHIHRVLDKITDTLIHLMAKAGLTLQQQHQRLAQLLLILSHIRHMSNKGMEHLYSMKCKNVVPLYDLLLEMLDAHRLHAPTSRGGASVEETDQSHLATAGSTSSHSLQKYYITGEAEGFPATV

T2: GST-TIF2.1 (UniProt Q15596 624-1287)
T2 construct: also called GST fused to TIF2.1; not shown: glutathione S-transferase (GST) tag of vector pGEX2T
T2 sequence (looked up): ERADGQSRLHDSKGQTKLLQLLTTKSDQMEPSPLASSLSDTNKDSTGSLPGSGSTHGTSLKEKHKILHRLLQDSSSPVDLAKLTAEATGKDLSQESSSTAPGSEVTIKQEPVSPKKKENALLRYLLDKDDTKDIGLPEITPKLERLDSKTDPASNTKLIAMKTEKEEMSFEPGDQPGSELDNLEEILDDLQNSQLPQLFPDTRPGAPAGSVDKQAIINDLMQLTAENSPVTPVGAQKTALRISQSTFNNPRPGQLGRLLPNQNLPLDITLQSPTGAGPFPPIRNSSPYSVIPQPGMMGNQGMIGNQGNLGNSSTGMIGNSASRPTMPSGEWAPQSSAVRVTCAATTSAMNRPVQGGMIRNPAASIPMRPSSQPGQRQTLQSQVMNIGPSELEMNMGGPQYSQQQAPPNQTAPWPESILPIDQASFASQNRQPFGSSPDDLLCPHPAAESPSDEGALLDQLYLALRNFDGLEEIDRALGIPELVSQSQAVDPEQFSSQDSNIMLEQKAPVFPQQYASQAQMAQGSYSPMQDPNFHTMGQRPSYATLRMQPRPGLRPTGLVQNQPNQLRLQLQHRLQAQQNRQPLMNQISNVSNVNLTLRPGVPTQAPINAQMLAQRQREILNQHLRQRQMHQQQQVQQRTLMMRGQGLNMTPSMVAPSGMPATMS

B1: ERα A/B domain (receptor, UniProt P03372 1-180, looked up)
chain: MTMTLHTKASGMALLHQIQGNELEPLNRPQLKIPLERPLGEVYLDSSKPAVYNYPEGAAYEFNAAAAANAQVYGQTGLPYGPGSEAAAFGSNGLGGFPPLNSVSPSPLMLLHPPPQLSPFLQPHGQQVPYYLENEPSGYTVREAGPPAFYRPNSDNRRQGGRERLASTNDKGSMAMESAK
notes: range 1-180; also called ERα truncated to amino acid 180
B2: LCoR-LSKAA-rluc fusion protein (other)
chain: MQRMIQQFAAEYTSKNSSTQDPSQPNSTKNQSLPKASPVTTSPTAATTQNPVLSKAAMADQDSPLDLTVRKSQSEPSEQDGVLDLSTKKSPCAGSTSLSHSPGCSSTQGNGRPGRPSQYRPDGLRSGDGVPPRSLQDGTREGFGHSTSLKVPLARSLQISEELLSRNQLSTAASLGPSGLQNHGQHLILSREASWAKPHYEFNLSRMKFRGNGALSNISDLPFLAENSAFPKMALQAKQDGKKDVSHSSPVDLKIPQVRGMDLSWESRTGDQYSYSSLVMGSQTESALSKKLRAILPKQSRKSMLDAGPDSWGSDAEQSTPGQPYPTSDQEGDPGSKQPRKKRGRYRQYNSEILEEAISVVMSGKMSVSKAQSIYGIPHSTLEYKVKERLGTLKNPPKKKMKLMRSEGPDVSVKIELDPQGEAAQSANESKNE
notes: also called rluc-LCoR-LSKAA; not shown: Renilla luciferase (rluc) of vector pRL-CMV
B3: GST-LCoR (other)
chain: B2 chain with A56L, A57L
notes: also called GST fused to LCoR; not shown: glutathione S-transferase (GST) tag of vector pGEX2TK
B4: GST-LSKAA (other)
chain: B2 chain
notes: Positions 56 and 57 are counted from the printed motif start (53); also called GST-LCoR-LSKAA; GST fused to LCoR-LSKAA; not shown: glutathione S-transferase (GST) tag of vector pGEX2TK
B5: ER378 (receptor, UniProt P03372 1-378, looked up)
chain: MTMTLHTKASGMALLHQIQGNELEPLNRPQLKIPLERPLGEVYLDSSKPAVYNYPEGAAYEFNAAAAANAQVYGQTGLPYGPGSEAAAFGSNGLGGFPPLNSVSPSPLMLLHPPPQLSPFLQPHGQQVPYYLENEPSGYTVREAGPPAFYRPNSDNRRQGGRERLASTNDKGSMAMESAKETRYCAVCNDYASGYHYGVWSCEGCKAFFKRSIQGHNDYMCPATNQCTIDKNRRKSCQACRLRKCYEVGMMKGGIRKDRRGGRMLKHKRQRDDGEGRGEVGSAGDMRAANLWPSPLMIKRSKKNSLALSLTADQMVSALLDAEPPILYSEYDPTRPFSEASMMGLLTNLADRELVHMINWAKRVPGFVDLTLHDQVHL
notes: In vitro translated
B6: HE15 (receptor, UniProt P03372 1-282, looked up)
chain: MTMTLHTKASGMALLHQIQGNELEPLNRPQLKIPLERPLGEVYLDSSKPAVYNYPEGAAYEFNAAAAANAQVYGQTGLPYGPGSEAAAFGSNGLGGFPPLNSVSPSPLMLLHPPPQLSPFLQPHGQQVPYYLENEPSGYTVREAGPPAFYRPNSDNRRQGGRERLASTNDKGSMAMESAKETRYCAVCNDYASGYHYGVWSCEGCKAFFKRSIQGHNDYMCPATNQCTIDKNRRKSCQACRLRKCYEVGMMKGGIRKDRRGGRMLKHKRQRDDGEGRGEVGS
notes: range 1-282; also called ERα truncated to amino acid 282 in region D
B7: Flag-m1+2 (Flag-tagged LCoR mutated in both CtBP binding sites) (other, not shown: small tags and cut ends)
chain: MQRMIQQFAAEYTSKNSSTQDPSQPNSTKNQSLPKASPVTTSPTAATTQNPVLSKLLMADQDSKSQSEPSEQDGKSPCAGSTSLSHSPGCSSTQGNGRPGRPSQYRPDGLRSGDGVPPRSLQDGTREGFGHSTSLKVPLARSLQISEELLSRNQLSTAASLGPSGLQNHGQHLILSREASWAKPHYEFNLSRMKFRGNGALSNISDLPFLAENSAFPKMALQAKQDGKKDVSHSSPVDLKIPQVRGMDLSWESRTGDQYSYSSLVMGSQTESALSKKLRAILPKQSRKSMLDAGPDSWGSDAEQSTPGQPYPTSDQEGDPGSKQPRKKRGRYRQYNSEILEEAISVVMSGKMSVSKAQSIYGIPHSTLEYKVKERLGTLKNPPKKKMKLMRSEGPDVSVKIELDPQGEAAQSANESKNE
notes: also called LCoR derivative (m1+2)

Assays:
GST-LCoR = biological target: B3; experiment: GST pull-down
ERα-EYFP fusion protein = biological target: T1, ERα-EYFP fusion protein; experiment: BRET in living COS-7 cells
Experimental: Cells were washed (2×) with PBS and harvested with 500 μl of PBS-5 mM EDTA. […] Readings were started immediately after coelenterazine H addition, and 10 repeated measures were taken.
BRET ratios were calculated as described in experimental procedures.

HDAC1 = biological target: T3, HDAC1 (UniProt Q13547 1-482); experiment: GST pull-down, in vitro translated HDAC
T3 construct: also called histone deacetylase 1
T3 sequence (Q13547 whole entry): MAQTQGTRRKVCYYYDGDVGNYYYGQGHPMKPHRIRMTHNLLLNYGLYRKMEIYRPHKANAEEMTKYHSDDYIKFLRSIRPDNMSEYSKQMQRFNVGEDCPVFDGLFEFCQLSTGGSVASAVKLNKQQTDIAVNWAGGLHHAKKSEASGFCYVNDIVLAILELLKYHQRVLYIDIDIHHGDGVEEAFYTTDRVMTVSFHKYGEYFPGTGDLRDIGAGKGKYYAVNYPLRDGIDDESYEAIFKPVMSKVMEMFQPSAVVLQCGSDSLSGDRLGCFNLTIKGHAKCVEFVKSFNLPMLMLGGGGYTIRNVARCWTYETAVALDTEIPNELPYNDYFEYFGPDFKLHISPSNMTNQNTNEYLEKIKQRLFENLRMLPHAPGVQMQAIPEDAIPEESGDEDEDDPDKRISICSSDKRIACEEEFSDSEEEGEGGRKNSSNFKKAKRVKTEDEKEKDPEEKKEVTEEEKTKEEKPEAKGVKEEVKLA

HDAC4 = biological target: T4, HDAC4 (UniProt P56524 1-1084, limits assumed); experiment: GST pull-down, in vitro translated HDAC
T4 construct: also called histone deacetylase 4
T4 sequence (P56524 whole entry): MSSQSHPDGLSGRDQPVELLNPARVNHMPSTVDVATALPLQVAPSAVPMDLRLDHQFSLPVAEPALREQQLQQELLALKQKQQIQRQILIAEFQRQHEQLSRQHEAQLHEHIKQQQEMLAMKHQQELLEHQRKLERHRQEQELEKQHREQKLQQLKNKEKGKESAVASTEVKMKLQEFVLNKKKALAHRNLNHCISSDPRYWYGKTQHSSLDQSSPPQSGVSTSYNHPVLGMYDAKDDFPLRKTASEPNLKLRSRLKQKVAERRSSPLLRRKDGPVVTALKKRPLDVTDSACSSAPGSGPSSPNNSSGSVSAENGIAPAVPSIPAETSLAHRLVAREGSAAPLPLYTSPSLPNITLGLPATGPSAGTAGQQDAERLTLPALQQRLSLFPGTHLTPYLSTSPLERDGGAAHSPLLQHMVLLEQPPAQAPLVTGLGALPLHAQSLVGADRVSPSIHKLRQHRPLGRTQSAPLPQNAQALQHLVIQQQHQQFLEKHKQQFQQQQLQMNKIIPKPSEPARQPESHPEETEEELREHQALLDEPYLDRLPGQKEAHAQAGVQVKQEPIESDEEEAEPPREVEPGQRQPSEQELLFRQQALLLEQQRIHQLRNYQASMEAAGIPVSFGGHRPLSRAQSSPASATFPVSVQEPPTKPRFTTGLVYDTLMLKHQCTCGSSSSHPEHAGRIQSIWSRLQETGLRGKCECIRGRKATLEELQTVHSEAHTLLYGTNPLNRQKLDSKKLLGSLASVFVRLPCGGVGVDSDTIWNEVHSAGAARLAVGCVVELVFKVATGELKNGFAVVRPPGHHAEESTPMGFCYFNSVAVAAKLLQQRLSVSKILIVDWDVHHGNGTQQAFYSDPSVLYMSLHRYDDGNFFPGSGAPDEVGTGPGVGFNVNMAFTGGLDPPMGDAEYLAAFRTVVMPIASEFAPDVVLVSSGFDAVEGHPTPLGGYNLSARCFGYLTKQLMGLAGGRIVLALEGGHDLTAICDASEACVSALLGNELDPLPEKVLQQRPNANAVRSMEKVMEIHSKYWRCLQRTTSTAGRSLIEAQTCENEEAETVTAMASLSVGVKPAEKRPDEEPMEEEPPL

GST-TIF2.1 = biological target: T2, GST-TIF2.1; experiment: GST pull-down, in vitro translated ER378
[1] = biological target: CtBP1 (C-terminal binding protein 1) (human, UniProt Q13363 1-440); experiment: coimmunoprecipitation with anti-CtBP antibody from transfected MCF-7 cells
Experimental: For immunoprecipitation of endogenous CtBP, CtIP, Rb, or Bmi1, MCF-7 cells in 150 mm dishes were lysed 3 min at 4° C. in 1 ml of LB (150 mM NaCl/10 mM Tris-HCl pH 7.4/0.2 mM Na orthovanadate/1 mM EDTA/1 mM EGTA/1% Triton-100X/0.5% IGEPAL CA-630/protease inhibitor cocktail; Boehringer-Mannheim, Laval, Qc). Cell debris were pelleted by centrifugation (14,000 rpm, 5 min), and proteins immunoprecipitated with 4 μg of αCtBP or αCtIP or αRb or polyclonal rabbit αBMI1 or control rabbit or goat IgG at 4° C. overnight followed by 2 hours incubation at 4° C. with protein A agarose (for αCtBP, αBmi1, control rabbit IgG) or protein A+G agarose (for αCtIP or αRb or control goat IgG). Beads were washed (3×) with LB. […] For immunoprecipitation of tagged proteins, transfected MCF-7 cells were lysed 30 min at 4° C. in 1 ml of LB, 48 h after transfection. Supernatants were cleared, incubated overnight with 4 μg of aCtBP or α-Flag M2 antibody followed by 2 hours incubation with protein-A agarose or protein A+G agarose beads respectively. Beads were washed (3×) with LB and Western blotted as above. Dilutions of specific antibodies used for Western blotting were: α-CtBP1 , α-CtBP2 (1:100), α-Flag M2-peroxidase (1:100).

Binder: B1
binding result (GST-LCoR): no binding

Binder: B2
fold reduction of hormone-independent interaction against wild-type LCoR (ERα-EYFP fusion protein): ~2 fold

Binder: B3
binding result (HDAC1): no binding | binding result (HDAC4): no binding

Binder: B4
binding result (HDAC1): no binding | binding result (HDAC4): no binding

Binder: B5
binding result (GST-TIF2.1): no binding

Binder: B6
binding result (GST-LCoR): no binding

Binder: B7
binding result [1]: no binding
